Source: publication PMC3828522 (Genes & Development, 2013)

Experiments:
[1] = target: full-length Pho protein (EMSA) (Drosophila melanogaster, UniProt Q8ST83 1-520); assay: native gel or EMSA
[2] = target: biotin-Pho spacer peptide (Drosophila melanogaster, UniProt Q8ST83 145-172, biotin (position not given)); assay: SPR
[3] = target: biotin-YY1 spacer peptide (human, UniProt P25490 199-228, biotin (position not given)); assay: SPR
Sequence of biotin-YY1 spacer peptide (P25490 199-228): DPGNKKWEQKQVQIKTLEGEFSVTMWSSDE

Sequence of full-length Pho protein (EMSA) (Q8ST83 whole entry): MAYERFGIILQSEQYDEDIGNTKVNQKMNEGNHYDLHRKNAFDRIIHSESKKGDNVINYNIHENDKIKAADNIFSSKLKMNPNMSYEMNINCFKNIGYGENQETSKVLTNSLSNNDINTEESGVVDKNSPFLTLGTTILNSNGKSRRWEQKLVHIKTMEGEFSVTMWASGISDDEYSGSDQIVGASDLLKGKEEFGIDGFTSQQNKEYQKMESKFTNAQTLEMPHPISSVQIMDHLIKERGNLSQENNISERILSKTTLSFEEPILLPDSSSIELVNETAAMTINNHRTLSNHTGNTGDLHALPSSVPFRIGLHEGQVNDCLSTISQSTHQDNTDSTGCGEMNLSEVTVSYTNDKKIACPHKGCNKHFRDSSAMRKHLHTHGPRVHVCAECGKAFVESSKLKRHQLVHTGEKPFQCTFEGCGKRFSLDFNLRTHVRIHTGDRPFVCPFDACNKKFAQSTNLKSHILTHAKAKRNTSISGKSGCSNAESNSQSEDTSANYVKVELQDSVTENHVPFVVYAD
Sequence of biotin-Pho spacer peptide (Q8ST83 145-172): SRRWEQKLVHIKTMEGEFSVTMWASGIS

Binder | fold weaker affinity than the Drosophila complex [3] [fold] | further results
Sfmbt 4MBT domain (Sfmbt 531-980), wild type (domain or fragment, Drosophila melanogaster, UniProt Q9VK33 531-980, looked up) DPTHSYDWLPRLSKENFNAAPVTCFPHAPGCEVWDNLGVGMKVEVENTDCDSIEVIQPGQTPTSFWVATILEIKGYKALMSYEGFDTDSHDFWVNLCNAEVHSVGWCATRGKPLIPPRTIEHKYKDWKDFLVGRLSGARTLPSNFYNKINDSLQSRFRLGLNLECVDKDRISQVRLATVTKIVGKRLFLRYFDSDDGFWCHEDSPIIHPVGWATTVGHNLAAPQDYLERMLAGREAMIEVHEDDATIELFKMNFTFDEYYSDGKTNSFVEGMKLEAVDPLNLSSICPATVMAVLKFGYMMIRIDSYQPDASGSDWFCYHEKSPCIFPAGFCSVNNISVTPPNGYDSRTFTWEGYLRDTGAVAAGQHLFHRIIPDHGFEVGMSLECADLMDPRLVCVATVARVVGRLLKVHFDGWTDEYDQWLDCESADIYPVGWCVLVNHKLEGPPRVAH |  | binding result [1]: binds
Sfmbt 4MBT S633P/S673P (domain or fragment, Drosophila melanogaster, UniProt Q9VK33 531-980, looked up) DPTHSYDWLPRLSKENFNAAPVTCFPHAPGCEVWDNLGVGMKVEVENTDCDSIEVIQPGQTPTSFWVATILEIKGYKALMSYEGFDTDSHDFWVNLCNAEVHPVGWCATRGKPLIPPRTIEHKYKDWKDFLVGRLSGARTLPPNFYNKINDSLQSRFRLGLNLECVDKDRISQVRLATVTKIVGKRLFLRYFDSDDGFWCHEDSPIIHPVGWATTVGHNLAAPQDYLERMLAGREAMIEVHEDDATIELFKMNFTFDEYYSDGKTNSFVEGMKLEAVDPLNLSSICPATVMAVLKFGYMMIRIDSYQPDASGSDWFCYHEKSPCIFPAGFCSVNNISVTPPNGYDSRTFTWEGYLRDTGAVAAGQHLFHRIIPDHGFEVGMSLECADLMDPRLVCVATVARVVGRLLKVHFDGWTDEYDQWLDCESADIYPVGWCVLVNHKLEGPPRVAH |  | fold decrease in binding affinity against the wild type [2]: 2 fold
L3MBTL2 4MBT domain, human (domain or fragment) TGQDALVLGFDWGKFLKDHSYKAAPVSCFKHVPLYDQWEDVMKGMKVEVLNSDAVLPSRVYWIASVIQTAGYRVLLRYEGFENDASHDFWCNLGTVDVHPIGWCAINSKILVPPRTIHAKFTDWKGYLMKRLVGSRTLPVDFHIKMVESMKYPFRQGMRLEVVDKSQVSRTRMAVVDTVIGGRLRLLYEDGDSDDDFWCHMWSPLIHPVGWSRRVGHGIKMSERRSDMAHHPTFRKIYCDAVPYLFKKVRAVYTEGGWFEEGMKLEAIDPLNLGNICVATVCKVLLDGYLMICVDGGPSTDGLDWFCYHASSHAIFPATFCQKNDIELTPPKGYEAQTFNWENYLEKTKSKAAPSRLFNMDCPNHGFKVGMKLEAVDLMEPRLICVATVKRVVHRLLSIHFDGWDSEYDQWVDCESPDIYPVGWCELTGYQLQPPVAAEPATPLKAKEATKKKKKQ | ~50 | 
MBTD1 4MBT domain, human (domain or fragment) AKTKAAVSMEGFSWGNYINSNSFIAAPVTCFKHAPMGTCWGDISENVRVEVPNTDCSLPTKVFWIAGIVKLAGYNALLRYEGFENDSGLDFWCNICGSDIHPVGWCAASGKPLVPPRTIQHKYTNWKAFLVKRLTGAKTLPPDFSQKVSESMQYPFKPCMRVEVVDKRHLCRTRVAVVESVIGGRLRLVYEESEDRTDDFWCHMHSPLIHHIGWSRSIGHRFKRSDITKKQDGHFDTPPHLFAKVKEVDQSGEWFKEGMKLEAIDPLNLSTICVATIRKVLADGFLMIGIDGSEAADGSDWFCYHATSPSIFPVGFCEINMIELTPPRGYTKLPFKWFDYLRETGSIAAPVKLFNKDVPNHGFRVGMKLEAVDLMEPRLICVATVTRIIHRLLRIHFDGWEEEYDQWVDCESPDLYPVGWCQLTGYQLQPPASQSSR | ~50 | 
